Like-named read-outs stand apart in the source and are kept apart here.
What was measured:
[1] = molecular target: HIV-1 Gag matrix domain (MA) (HIV-1); assay: crystal structure; MA co-crystallised with IP6; three crystal forms: cryogenic MA_IP6_R32 (2.40 Å), cryogenic MA_IP6_C2 (2.72 Å, six chains in the asymmetric unit), ambient-temperature SFX MA_IP6_SFX_P1 (3.5 Å); PEG 3350 or PEG 4000/2-propanol, 100 mM MES pH 6.0-6.5
[2] = molecular target: HIV-1 Gag matrix domain (MA) (HIV-1); assay: as above; remark: listed apart in the source

## HIV-1 Gag matrix domain (MA) (domain or fragment)
[1]
  stoichiometry N: 3
[2]
  stoichiometry N: 6
